# Molecular target: rat cardiac ryanodine receptor (RyR2) (rat (endogenous in rat ventricular myocytes)) (UniProt B0LPN4)
# Chain of UniProt B0LPN4 (B0LPN4 whole entry): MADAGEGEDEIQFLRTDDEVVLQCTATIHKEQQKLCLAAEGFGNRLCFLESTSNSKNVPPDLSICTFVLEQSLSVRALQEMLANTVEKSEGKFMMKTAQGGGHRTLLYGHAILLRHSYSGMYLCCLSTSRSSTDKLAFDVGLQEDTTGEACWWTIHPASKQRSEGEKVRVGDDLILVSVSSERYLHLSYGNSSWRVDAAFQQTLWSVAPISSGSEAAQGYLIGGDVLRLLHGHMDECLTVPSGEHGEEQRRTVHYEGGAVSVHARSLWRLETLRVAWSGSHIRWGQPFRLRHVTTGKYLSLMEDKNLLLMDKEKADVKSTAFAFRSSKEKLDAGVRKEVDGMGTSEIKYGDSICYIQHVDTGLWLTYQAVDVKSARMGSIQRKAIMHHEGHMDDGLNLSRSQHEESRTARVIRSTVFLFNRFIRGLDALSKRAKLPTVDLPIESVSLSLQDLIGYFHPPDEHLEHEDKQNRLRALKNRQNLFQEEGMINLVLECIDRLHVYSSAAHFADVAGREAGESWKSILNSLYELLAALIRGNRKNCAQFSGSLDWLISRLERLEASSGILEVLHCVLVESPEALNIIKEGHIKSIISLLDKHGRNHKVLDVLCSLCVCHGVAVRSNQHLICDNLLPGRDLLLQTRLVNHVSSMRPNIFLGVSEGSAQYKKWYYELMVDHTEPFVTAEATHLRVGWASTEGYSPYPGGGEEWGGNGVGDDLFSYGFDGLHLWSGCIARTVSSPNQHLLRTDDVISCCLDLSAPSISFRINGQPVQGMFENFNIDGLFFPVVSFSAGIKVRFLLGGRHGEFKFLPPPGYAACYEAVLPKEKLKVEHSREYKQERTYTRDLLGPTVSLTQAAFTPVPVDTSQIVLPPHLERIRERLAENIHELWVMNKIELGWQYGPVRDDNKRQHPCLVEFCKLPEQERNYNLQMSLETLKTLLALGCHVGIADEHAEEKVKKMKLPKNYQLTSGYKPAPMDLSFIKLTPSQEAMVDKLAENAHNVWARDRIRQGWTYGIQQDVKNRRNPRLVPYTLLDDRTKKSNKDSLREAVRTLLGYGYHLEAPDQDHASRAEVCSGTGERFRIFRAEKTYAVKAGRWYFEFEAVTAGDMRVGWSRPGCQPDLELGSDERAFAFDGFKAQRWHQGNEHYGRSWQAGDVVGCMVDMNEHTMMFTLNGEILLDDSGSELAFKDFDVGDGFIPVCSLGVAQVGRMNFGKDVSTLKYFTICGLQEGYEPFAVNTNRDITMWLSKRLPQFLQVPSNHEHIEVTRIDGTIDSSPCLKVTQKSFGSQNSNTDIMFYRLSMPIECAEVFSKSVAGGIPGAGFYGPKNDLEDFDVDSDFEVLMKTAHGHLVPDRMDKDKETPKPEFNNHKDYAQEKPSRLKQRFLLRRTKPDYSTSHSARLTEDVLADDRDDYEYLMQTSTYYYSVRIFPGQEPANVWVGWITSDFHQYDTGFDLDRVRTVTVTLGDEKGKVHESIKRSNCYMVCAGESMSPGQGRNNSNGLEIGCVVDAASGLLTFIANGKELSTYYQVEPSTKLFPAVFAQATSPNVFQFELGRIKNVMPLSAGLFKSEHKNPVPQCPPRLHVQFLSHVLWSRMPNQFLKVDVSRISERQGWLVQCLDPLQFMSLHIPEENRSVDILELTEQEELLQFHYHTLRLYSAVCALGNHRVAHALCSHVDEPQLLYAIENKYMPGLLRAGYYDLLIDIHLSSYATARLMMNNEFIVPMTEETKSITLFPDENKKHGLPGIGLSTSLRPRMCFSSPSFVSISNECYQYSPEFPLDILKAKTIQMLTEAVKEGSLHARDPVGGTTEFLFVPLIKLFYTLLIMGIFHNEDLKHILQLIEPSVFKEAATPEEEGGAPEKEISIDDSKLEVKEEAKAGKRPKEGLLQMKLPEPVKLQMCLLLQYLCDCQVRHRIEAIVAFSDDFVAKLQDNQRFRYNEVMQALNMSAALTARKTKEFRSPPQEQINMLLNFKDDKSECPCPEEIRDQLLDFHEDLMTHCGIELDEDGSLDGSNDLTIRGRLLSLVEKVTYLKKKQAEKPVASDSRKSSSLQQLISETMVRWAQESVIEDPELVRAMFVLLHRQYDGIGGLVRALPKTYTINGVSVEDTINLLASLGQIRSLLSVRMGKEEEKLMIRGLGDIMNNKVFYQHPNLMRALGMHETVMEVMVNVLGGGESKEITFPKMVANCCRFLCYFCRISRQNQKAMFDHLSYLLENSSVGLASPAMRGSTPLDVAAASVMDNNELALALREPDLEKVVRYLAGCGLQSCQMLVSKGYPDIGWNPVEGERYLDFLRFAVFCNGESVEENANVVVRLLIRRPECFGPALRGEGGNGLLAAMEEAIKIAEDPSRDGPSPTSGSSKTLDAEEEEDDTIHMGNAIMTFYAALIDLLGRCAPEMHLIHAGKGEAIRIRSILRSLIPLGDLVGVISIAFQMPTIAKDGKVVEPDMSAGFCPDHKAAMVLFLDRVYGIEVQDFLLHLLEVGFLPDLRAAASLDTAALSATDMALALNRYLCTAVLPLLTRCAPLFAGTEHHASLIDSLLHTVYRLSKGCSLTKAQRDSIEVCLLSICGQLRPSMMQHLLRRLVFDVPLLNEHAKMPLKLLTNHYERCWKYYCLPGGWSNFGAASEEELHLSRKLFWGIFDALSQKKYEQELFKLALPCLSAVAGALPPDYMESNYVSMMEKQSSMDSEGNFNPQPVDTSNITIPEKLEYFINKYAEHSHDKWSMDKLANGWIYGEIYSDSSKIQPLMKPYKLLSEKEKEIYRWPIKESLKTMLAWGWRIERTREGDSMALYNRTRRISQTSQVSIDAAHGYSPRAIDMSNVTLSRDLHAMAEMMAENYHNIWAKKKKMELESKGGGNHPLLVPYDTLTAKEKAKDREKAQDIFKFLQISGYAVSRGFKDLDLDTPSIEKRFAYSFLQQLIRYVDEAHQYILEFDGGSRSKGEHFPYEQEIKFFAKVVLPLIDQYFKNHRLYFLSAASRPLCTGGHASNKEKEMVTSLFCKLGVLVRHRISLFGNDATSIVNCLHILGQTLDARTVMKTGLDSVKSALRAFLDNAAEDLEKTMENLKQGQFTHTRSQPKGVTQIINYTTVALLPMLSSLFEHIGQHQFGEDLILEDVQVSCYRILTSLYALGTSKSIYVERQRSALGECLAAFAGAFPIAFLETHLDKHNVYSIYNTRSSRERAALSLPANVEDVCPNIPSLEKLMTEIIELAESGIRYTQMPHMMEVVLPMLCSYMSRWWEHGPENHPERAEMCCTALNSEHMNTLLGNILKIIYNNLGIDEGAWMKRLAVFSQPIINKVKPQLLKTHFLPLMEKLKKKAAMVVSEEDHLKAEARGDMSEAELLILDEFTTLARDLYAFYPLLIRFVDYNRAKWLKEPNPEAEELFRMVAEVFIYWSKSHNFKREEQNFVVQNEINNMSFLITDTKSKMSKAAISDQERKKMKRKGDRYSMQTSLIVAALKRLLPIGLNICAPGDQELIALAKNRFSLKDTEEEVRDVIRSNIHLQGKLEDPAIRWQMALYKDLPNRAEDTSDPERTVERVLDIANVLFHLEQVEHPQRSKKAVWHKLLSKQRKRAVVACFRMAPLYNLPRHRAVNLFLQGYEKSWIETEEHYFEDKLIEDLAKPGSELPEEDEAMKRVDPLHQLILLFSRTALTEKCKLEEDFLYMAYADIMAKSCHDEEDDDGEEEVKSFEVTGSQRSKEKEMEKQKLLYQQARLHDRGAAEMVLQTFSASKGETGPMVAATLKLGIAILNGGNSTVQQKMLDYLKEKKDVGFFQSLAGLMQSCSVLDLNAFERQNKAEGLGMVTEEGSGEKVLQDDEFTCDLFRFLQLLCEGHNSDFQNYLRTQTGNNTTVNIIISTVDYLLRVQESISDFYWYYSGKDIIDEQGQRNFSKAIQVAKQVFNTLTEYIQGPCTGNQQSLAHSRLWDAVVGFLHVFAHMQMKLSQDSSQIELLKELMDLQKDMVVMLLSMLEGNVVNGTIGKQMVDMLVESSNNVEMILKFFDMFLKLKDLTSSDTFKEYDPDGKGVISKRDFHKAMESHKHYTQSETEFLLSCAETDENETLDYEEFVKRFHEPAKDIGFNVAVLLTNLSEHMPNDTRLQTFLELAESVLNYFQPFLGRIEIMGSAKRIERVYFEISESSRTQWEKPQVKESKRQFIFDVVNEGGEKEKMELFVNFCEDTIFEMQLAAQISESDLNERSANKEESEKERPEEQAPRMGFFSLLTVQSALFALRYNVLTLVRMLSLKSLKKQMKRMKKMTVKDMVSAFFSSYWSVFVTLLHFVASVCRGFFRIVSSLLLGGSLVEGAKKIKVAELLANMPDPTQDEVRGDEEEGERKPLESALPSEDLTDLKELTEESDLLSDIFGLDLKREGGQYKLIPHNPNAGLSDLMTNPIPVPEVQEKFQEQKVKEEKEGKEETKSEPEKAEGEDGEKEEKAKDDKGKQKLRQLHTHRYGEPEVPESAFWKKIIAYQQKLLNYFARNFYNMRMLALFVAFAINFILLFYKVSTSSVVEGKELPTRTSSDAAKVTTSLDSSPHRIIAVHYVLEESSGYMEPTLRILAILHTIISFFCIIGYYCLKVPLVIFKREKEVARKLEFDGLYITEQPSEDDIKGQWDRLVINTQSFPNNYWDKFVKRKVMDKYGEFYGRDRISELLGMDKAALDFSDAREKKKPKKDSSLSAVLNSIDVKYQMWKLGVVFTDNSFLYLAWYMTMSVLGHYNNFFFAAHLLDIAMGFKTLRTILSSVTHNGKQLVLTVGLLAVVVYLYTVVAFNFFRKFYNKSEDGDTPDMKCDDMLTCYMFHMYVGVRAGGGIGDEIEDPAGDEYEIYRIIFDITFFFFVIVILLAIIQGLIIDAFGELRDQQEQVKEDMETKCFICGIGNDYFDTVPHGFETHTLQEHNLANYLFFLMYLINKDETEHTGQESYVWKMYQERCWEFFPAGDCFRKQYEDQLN
# Chain of FKBP12 (P62942 whole entry): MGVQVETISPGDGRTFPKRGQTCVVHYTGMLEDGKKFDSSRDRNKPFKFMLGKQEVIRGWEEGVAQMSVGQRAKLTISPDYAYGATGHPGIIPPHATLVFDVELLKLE
substance,measurement,value
FKBP12 (from UniProt P62942 1-108) (natural protein),percent increase in the frequency of spontaneous Ca^2+ waves in permeabilised rat cardiac myocytes with 3 µM FKBP12,50%
same,"percent increase in the frequency of spontaneous Ca^2+ waves in permeabilised rat cardiac myocytes with 3 µM FKBP12, after pre-incubation with and in the continued presence of 200 nM FKBP12.6",16.2%
